Data from publication PMC8168426 (ACS chemical biology, 2020).
Ends that are not written are not given here. * marks the point of attachment. NHCH2CH2(5-OH-indol-3-yl) = Oc1ccc2[nH]cc(CCN*)c2c1; fluorescein = fluorescein label (C-terminal); Me3 = trimethyl (trimethyl-lysine); Me2 = dimethyl (dimethyl-lysine)

Target: T1, GST-PHD1 (S287–K347) of histone demethylase KDM5A (UniProt P29375 287-347)
T1 sequence (looked up): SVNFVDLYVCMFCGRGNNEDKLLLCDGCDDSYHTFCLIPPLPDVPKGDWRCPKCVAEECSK
Assay: fluorescence polarisation
Conditions: not given

| Molecule | Ki [µM] |
| --- | --- |
| ARTKATARKS (peptide, UniProt P68431 2-11, looked up) [H3 Q5A 10-mer peptide] | 0.75 |
| ARYKYTARKS (peptide, UniProt P68431 2-11, looked up) [H3 T3Y Q5Y 10-mer peptide] | > 100 |
| ARFKQTARKS (peptide, UniProt P68431 2-11, looked up) [H3 T3F 10-mer peptide] | > 100 |
| ARDKQTARKS (peptide, UniProt P68431 2-11, looked up) [H3 T3D 10-mer peptide] | > 100 |
| ARYKQTARKS (peptide, UniProt P68431 2-11, looked up) [H3 T3Y 10-mer peptide] | > 100 |
| ARAKQTARKS (peptide, UniProt P68431 2-11, looked up) [H3 T3A 10-mer peptide] | > 100 |

Target: T2, PHD1^287–347-KDAC8–6xHis fusion construct (UniProt P29375 287-347)
T2 sequence (looked up): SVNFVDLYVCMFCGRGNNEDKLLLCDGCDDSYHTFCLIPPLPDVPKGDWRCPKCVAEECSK
Assay: PI-SAMDI
Conditions: not given

| Molecule | binding result |
| --- | --- |
| ARTKRC [H3 Q5R 6-mer ligand (ARXKZC with X = T, Z = R)] | binds |
| ARVKRC [H3 T3V Q5R 6-mer ligand (ARXKZC with X = V, Z = R)] | binds |
| ARTKSC [H3 Q5S 6-mer ligand (ARXKZC with X = T, Z = S)] | binds |
| ARYKQC [H3 T3Y 6-mer ligand (ARXKZC with X = Y, Z = Q)] | binds |
| ARYKRC [H3 T3Y Q5R 6-mer ligand (ARXKZC with X = Y, Z = R)] | binds |
| ARYKYC [H3 T3Y Q5Y 6-mer ligand (ARXKZC with X = Y, Z = Y)] | binds |
| ARVKWC [H3 T3V Q5W 6-mer ligand (ARXKZC with X = V, Z = W)] | binds |

Test system: PHD1 domain of KDM5A
Assay: not given
Conditions: result in words; cited from earlier work

| Molecule | Binding to PHD1 as previously established |
| --- | --- |
| H3 R2A: well-characterized H3 12-mer ligand with R2A mutation (AATKQTARKSGC) | strongly reduces binding |
| H3K9me3: well-characterized H3 12-mer ligand bearing K9me3 (ARTKQTARKSGC; trimethyl-lysine at 9 (H3K9me3)) [Ligand H3K9me3] | does not impact PHD1-H3 association |
| N-terminally acetylated H3: N-terminally acetylated H3 12-mer peptide (Ac-ARTKQTARKSGC) | not bind PHD1 |

Target: T2, PHD1^287–347-KDAC8–6xHis fusion …
Assay: PI-SAMDI
Conditions: not given
Remark: another data set of the same source

| Molecule | binding result |
| --- | --- |
| ARTKETARKSGC [H3 Q5E 12-mer ligand] | binds |
| ARTK(Me2)QTARKSGC (not fully specified (C-terminus)) [H3K4me2 12-mer ligand] | binds |
| ARTKQ(NHCH2CH2(5-OH-indol-3-yl))TARKSGC (not fully specified (C-terminus)) [Q5-serotonylated H3 12-mer ligand] | binds |
| ARTKYTARKSGC [H3 Q5Y 12-mer ligand] | binds |
| ARTK(Me)QTARKSGC (not fully specified (C-terminus)) [H3K4me1 12-mer ligand] | binds |
| ARTKQTARKSGC (not fully specified; trimethyl-lysine at 9 (H3K9me3)) [H3K9me3 12-mer ligand] | binds |
| ARTKQTARKSGC (not fully specified (C-terminus)) [unmodified H3 12-mer ligand (first 10 N-terminal residues of H3 and a GC moiety)] | binds |
| ARTK(Me3)QTARKSGC (not fully specified (C-terminus)) [H3K4me3 12-mer ligand] | binds |

Target: T1, GST-PHD1 (S287–K347) of histone …
Assay: fluorescence polarisation
Conditions: not given
Remark: another data set of the same source

| Molecule | binding result |
| --- | --- |
| ARTKQ(NHCH2CH2(5-OH-indol-3-yl))TARKSGC (not fully specified (C-terminus)) [Q5-serotonylated H3 12-mer ligand] | binds |
| ARTKQTARKS-fluorescein (peptide, UniProt P68431 2-11, looked up) [H3 peptide (1–10) carrying a C-terminal fluorescein label] | binds |
| ARTKQTARKSGC (not fully specified (C-terminus)) [unmodified H3 12-mer ligand (first 10 N-terminal residues of H3 and a GC moiety)] | binds |
